Reference: PMC1810427, “MLN51 Stimulates the RNA-Helicase Activity of eIF4AIII”

Tests used:
[1] = molecular target: eIF4AIII;MLN51 SELOR;Y14;Magoh (human;human;human, UniProt P38919;O15234;Q9Y5S9;P61326 1-411;137-283;50-174;1-146, |||); experiment: SPR; ATP; 5 mM Mg2+; SPR (Biacore 2000): 40 mM Tris-HCl pH 7.8, 50 mM NaCl, 4 mM DTT, 5 mM MgCl2, 0.002% Tween 20, 30 ul/min, 10-160 nM protein; temperature not stated; details: protein: recombinant;recombinant;recombinant;recombinant; tags: N-terminal His6;GST cleaved off (PreScission);none;N-terminal His6; copies: 1;1;1;1; label: 5' biotin; single strand
eIF4AIII;MLN51 SELOR = eIF4AIII;MLN51 SELOR (human;human?, UniProt P38919;O15234 1-411;137-283, |); experiment: SPR; AMPPNP; 5 mM Mg2+; SPR (Biacore 2000): 40 mM Tris-HCl pH 7.8, 50 mM NaCl, 4 mM DTT, 5 mM MgCl2, 0.002% Tween 20, 30 ul/min, 10-160 nM protein; temperature not stated; details: protein: recombinant;recombinant; tags: N-terminal His6;GST cleaved off (PreScission); copies: 1;1; label: 5' biotin; single strand
MLN51 SELOR = MLN51 SELOR (UniProt O15234 137-283); experiment: SPR; no nucleotide; 5 mM Mg2+; SPR (Biacore 2000): 40 mM Tris-HCl pH 7.8, 50 mM NaCl, 4 mM DTT, 5 mM MgCl2, 0.002% Tween 20, 30 ul/min, 10-160 nM protein; temperature not stated; details: protein: recombinant; tags: GST cleaved off (PreScission); label: 5' biotin; single strand
Y14;Magoh = Y14;Magoh (human;human, UniProt Q9Y5S9;P61326 50-174;1-146, |); experiment: SPR; no nucleotide stated; 5 mM Mg2+; SPR (Biacore 2000): 40 mM Tris-HCl pH 7.8, 50 mM NaCl, 4 mM DTT, 5 mM MgCl2, 0.002% Tween 20, 30 ul/min, 10-160 nM protein; temperature not stated; details: protein: recombinant;recombinant; tags: none;N-terminal His6; copies: 1;1; label: 5' biotin; single strand
Chain of Y14;Magoh (P61326 whole entry, chain 2 of 2, other chains not shown): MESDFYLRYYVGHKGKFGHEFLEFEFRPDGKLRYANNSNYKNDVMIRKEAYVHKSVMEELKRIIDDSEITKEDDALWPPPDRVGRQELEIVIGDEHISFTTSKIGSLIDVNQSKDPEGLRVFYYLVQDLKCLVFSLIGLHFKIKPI

Chain of eIF4AIII;MLN51 SELOR (P38919 whole entry, chain 1 of 2): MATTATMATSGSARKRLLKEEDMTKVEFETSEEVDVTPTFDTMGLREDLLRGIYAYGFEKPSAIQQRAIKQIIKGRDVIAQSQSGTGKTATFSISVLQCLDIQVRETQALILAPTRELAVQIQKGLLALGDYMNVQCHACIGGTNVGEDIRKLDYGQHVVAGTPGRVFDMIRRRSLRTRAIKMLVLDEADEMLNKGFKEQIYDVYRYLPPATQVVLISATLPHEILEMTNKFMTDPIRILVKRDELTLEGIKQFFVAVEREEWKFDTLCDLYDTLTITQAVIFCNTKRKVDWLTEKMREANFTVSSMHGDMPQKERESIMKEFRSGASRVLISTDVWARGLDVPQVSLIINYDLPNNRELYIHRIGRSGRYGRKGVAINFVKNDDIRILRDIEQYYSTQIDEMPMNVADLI
Chain of eIF4AIII;MLN51 SELOR (O15234 137-283, chain 2 of 2): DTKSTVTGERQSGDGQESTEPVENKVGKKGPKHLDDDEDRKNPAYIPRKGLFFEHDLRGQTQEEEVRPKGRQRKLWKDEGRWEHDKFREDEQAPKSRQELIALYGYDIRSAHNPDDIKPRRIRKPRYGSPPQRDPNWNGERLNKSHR
Chain of eIF4AIII;MLN51 SELOR;Y14;Magoh (P38919 whole entry, chain 1 of 4, other chains not shown): as the sequence (P38919 whole entry, chain 1 of 2) above
Chain of eIF4AIII;MLN51 SELOR;Y14;Magoh (O15234 137-283, chain 2 of 4, other chains not shown): as the sequence (O15234 137-283, chain 2 of 2) above
Chain of eIF4AIII;MLN51 SELOR;Y14;Magoh (P61326 whole entry, chain 4 of 4, other chains not shown): as the sequence (P61326 whole entry, chain 2 of 2, other chains not shown) above
Chain of MLN51 SELOR (O15234 137-283): as the sequence (O15234 137-283, chain 2 of 2) above

Work on AUGUCAUUCGAGUACAGUCUGUUCAGCUAGUCUCC (ssRNA) [35-mer ssRNA] yielded a Kd [1] of roughly 10 nM, a Kd (eIF4AIII;MLN51 SELOR) of roughly 10 nM and a Kd (MLN51 SELOR) of roughly 1000 nM. It also gave a Kd (Y14;Magoh) of roughly 2000 nM.
